The supplement of paper PMC7125110
± gives the standard error. This sample holds only a part of the variants without activity.

B1: glmS ribozyme (parent)
chain: AUAAAAGCGCCAGAACUACAGAAAUGUAGUUGACGAGGAGGAGGUUUAUCGAAUUUUCGGCGGAUGCCUCCAAA

How the values were obtained:
Settings in all cases: with glucosamine-6-phosphate
glucosamine-6-phosphate [1] = variants of: B1; assay: self-cleavage kobs at 640 uM GlcN6P; higher = faster cleavage; RNA array
Outline: (§1)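 Barcoded ribozyme variants on sequenced MiSeq chips were transcribed in situ by E. coli RNA polymerase and followed at 37 °C through a hybridised Cy3 probe. Glucosamine-6-phosphate at 40 μM to 10 mM in HEPES/KCl/Mg(OAc)2 buffer was flowed in, and tiles were imaged over ~14 h. Signals were normalised to baseline and to non-cleaving reference variants, and per-tile medians were fit to one- or two-exponential decays to give kobs. Weighted Michaelis–Menten fits across concentrations gave kcat and KM.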

glucosamine-6-phosphate [2] = variants of: B1; assay: self-cleavage kobs at 2500 uM GlcN6P; higher = faster cleavage; RNA array
Outline: as §1

glucosamine-6-phosphate [3] = variants of: B1; assay: self-cleavage kobs at 10000 uM GlcN6P; higher = faster cleavage; RNA array
Outline: as §1

| Variant | self-cleavage kobs at 640 uM GlcN6P (glucosamine-6-phosphate [1]) | self-cleavage kobs at 2500 uM GlcN6P (glucosamine-6-phosphate [2]) | self-cleavage kobs at 10000 uM GlcN6P (glucosamine-6-phosphate [3]) |
| --- | --- | --- | --- |
| G35C U54G | < 1e-05 s⁻¹ | < 1e-05 s⁻¹ | – |
| G13A C16G G59C C68A | 0.000133 ± 3.8e-05 s⁻¹ | – | – |
| C10U G32A G59A G60A | < 1e-05 s⁻¹ | – | – |
| A12C G32C G62A G63U | < 1e-05 s⁻¹ | < 1e-05 s⁻¹ | – |
| A39G C61G A64C | < 1e-05 s⁻¹ | < 1e-05 s⁻¹ | – |
| C10G C68G C71U | 3.95e-05 ± 1.7e-05 s⁻¹ | – | – |
| A14U A33C U57C | 0.0103 ± 0.004 s⁻¹ | – | – |
| A6C C16U G38U U47C G63A | < 1e-05 s⁻¹ | < 1e-05 s⁻¹ | – |
| G38C G41U G44C | < 1e-05 s⁻¹ | < 1e-05 s⁻¹ | – |
| G9U A36G A39U | < 1e-05 s⁻¹ | < 1e-05 s⁻¹ | – |
| A33U G44U U46G | < 1e-05 s⁻¹ | < 1e-05 s⁻¹ | – |
| A6U U56G U65A C67A | 9.86e-05 ± 3e-05 s⁻¹ | 0.000119 ± 2.9e-05 s⁻¹ | – |
| A33C C61A A64U C68U | < 1e-05 s⁻¹ | – | – |
| C11U G38C G51U U65A | < 1e-05 s⁻¹ | – | – |
| U30G A48U U65A U69G C70U | 4.35e-05 ± 2e-05 s⁻¹ | – | – |
| G7U G38A G44U | < 1e-05 s⁻¹ | – | – |
| G37A G43U G62U G66C C67A | < 1e-05 s⁻¹ | < 1e-05 s⁻¹ | < 1e-05 s⁻¹ |
| A6U C67U C70G | 0.000211 ± 6.3e-05 s⁻¹ | – | – |

| Variant | self-cleavage kobs at 640 uM GlcN6P (glucosamine-6-phosphate [1]) | self-cleavage kobs at 2500 uM GlcN6P (glucosamine-6-phosphate [2]) | self-cleavage kobs at 10000 uM GlcN6P (glucosamine-6-phosphate [3]) |
| --- | --- | --- | --- |
| C8U C34U A42U U65A C67G | 0.000104 ± 4.1e-05 s⁻¹ | 5.58e-05 ± 2.1e-05 s⁻¹ | – |
| G13U G32A A36G G38U | < 1e-05 s⁻¹ | – | – |
| A14G U54C C61G G62C | < 1e-05 s⁻¹ | – | – |
| G37U A48G C70U | < 1e-05 s⁻¹ | – | – |
| A53U C58G C68U | 9.02e-05 ± 3.1e-05 s⁻¹ | – | – |
| A6U G9C A12C U55A | < 1e-05 s⁻¹ | < 1e-05 s⁻¹ | – |
| G37C A48C C71G | < 1e-05 s⁻¹ | – | – |
| A6C G35U G37U G38C | < 1e-05 s⁻¹ | – | – |
| G9C C11G | < 1e-05 s⁻¹ | < 1e-05 s⁻¹ | < 1e-05 s⁻¹ |
| G13C G35U A52U | < 1e-05 s⁻¹ | – | – |
| A6G C8G C11G G13U C50G C61A C71U | 0.00556 ± 0.0017 s⁻¹ | 0.000121 ± 5.1e-05 s⁻¹ | – |
| C16U A36U G59U A64U | < 1e-05 s⁻¹ | – | – |
| C10A C67U C68U | 0.000489 ± 0.00014 s⁻¹ | – | – |
| U30C G44U | < 1e-05 s⁻¹ | < 1e-05 s⁻¹ | < 1e-05 s⁻¹ |
| A33U C50G G51A | < 1e-05 s⁻¹ | – | – |
| G13C U46A G66A C70A | < 1e-05 s⁻¹ | – | – |
| G43C U49A U57G C68G | < 1e-05 s⁻¹ | – | – |
| A15C G38U C58A | < 1e-05 s⁻¹ | – | – |
